Experiment [1] deals with human FcRn (FCGRT and beta2-microglobulin) on MDCK-hFcRn cells, clone 305-6 (human) (UniProt P55899). As to the kind of experiment: cell-based or functional assay.
The target of experiment [2] is human FcRn (immobilized on nickel-nitrilotriacetic acid-coated biosensors) (human) (UniProt P55899). The experiment is described as follows: FcRn binding at pH 6.0 (BLI).
Experiment [3] concerns the target human FcRn (FCGRT and beta2-microglobulin) on MDCK-hFcRn cells, clone 305-6 (human) (UniProt P55899). The experiment is described as follows: flow cytometry on MDCK-hFcRn cells. A general note: Flow cytometry measures light scatter and fluorescence of single cells or particles in a stream.
The target of experiment [4] is human FcRn (immobilized on nickel-nitrilotriacetic acid-coated biosensors) (human) (UniProt P55899). As to the kind of experiment: BLI (Octet RED), FcRn on Ni-NTA biosensor, pH 6.0. In general terms: Biolayer interferometry detects binding as a change in optical thickness at a sensor tip.
In experiment [5] the target is human FcRn (FCGRT and beta2-microglobulin) on MDCK-hFcRn cells, clone 305-6 (human) (UniProt P55899). As to the kind of experiment: flow cytometry, 100 µg/mL on MDCK-hFcRn cells, physiological pH, geometric MFI (No mAb: 94).
Experiment [6] concerns the target human FcRn (immobilized on nickel-nitrilotriacetic acid-coated biosensors) (human) (UniProt P55899). The experiment is described as follows: BLI, pH 6.0; range of the panel, lower end tied to Nivolumab by Table 1.

pKd: −log10 of the molar value.

This note sets out measurements from patent US20210172932A1.

For orientation: pKd means −log10 of the Kd, conventionally taken in molar units. A lower pKd goes with a high Kd.

For 2H7-DG (antibody), the Transcytosis (MDCK-hFcRN) in experiment [1] is 4.3 ng/mL. Besides, in experiment [2], the pKd was 6.36. In experiment [3], this substance displayed a Binding to MDCK-hFcRN, MFI of 160 MFI.
On the same counts, the results for 2H7-Man5 (antibody) are 10.3 ng/mL, 6.64 and 207 MFI.
On to Adalimumab (antibody), for which, in experiment [1], the Transcytosis was 4.7 ng/mL and the Transcytosis in MDCK-hFcRn cells was 4.7 ng/mL. Also, the negative logarithm of the Kd (pKd) in experiment [4] was 5.93. Besides, the Binding to MDCK-FcRn cells, MFI in experiment [5] was 183 MFI.
In the case of Alirocumab (antibody), the Transcytosis in experiment [1] was found to be 9.9 ng/mL.
In experiment [1], Atezolizumab (antibody) registered a Transcytosis of 3 ng/mL. For the same substance, the pKd in experiment [4] was 6.19.
On the same counts, the results for Avelumab (antibody) are 7.3 ng/mL and 5.89.
In experiment [1], Basiliximab (antibody) showed a Transcytosis of 14.9 ng/mL and a Transcytosis in MDCK-hFcRn cells of 14.8 ng/mL. Besides, in experiment [4], the pKd was 6.27. Besides, in experiment [5], the Binding to MDCK-FcRn cells, MFI was determined as 203 MFI.
As to Durvalumab (antibody), the Transcytosis in experiment [1] was determined as 6 ng/mL. This substance had a pKd in experiment [4] of 6.15.
As to Efalizumab (antibody), in experiment [1], the Transcytosis worked out at 8.3 ng/mL.
For the substance Emicizumab (bispecific antibody), the Transcytosis in experiment [1] is 3.6 ng/mL.
In experiment [1], Evolocumab (antibody) returned a Transcytosis of 3.6 ng/mL.
The substance Golimumab (antibody) came in with a Transcytosis in experiment [1] of 6.8 ng/mL.
On the same count and under the same terms, in the case of Ixekizumab (antibody) it was 5.1 ng/mL.
In experiment [1], Natalizumab (antibody) displayed a Transcytosis of 4.9 ng/mL. This substance had a pKd in experiment [4] of 6.55.
With Nivolumab (antibody), in experiment [1], the Transcytosis stood at 4.3 ng/mL. Further, the pKd in experiment [4] and in experiment [6] was 6.60 in each case.
In turn, Obinutuzumab (antibody) displayed a Transcytosis in experiment [1] of 4.5 ng/mL.
In experiment [1], Ocrelizumab (antibody) had a Transcytosis of 4.8 ng/mL, a Transcytosis (MDCK-hFcRN) of 4.8 ng/mL and a Transcytosis in MDCK-hFcRn cells of 4.8 ng/mL. The same substance had a negative-log Kd (pKd) in experiment [2] of 6.35. In experiment [3], the Binding to MDCK-hFcRN, MFI was 140 MFI. The pKd in experiment [4] was 6.35. The substance also displayed a Binding to MDCK-FcRn cells, MFI in experiment [5] of 101 MFI.
For Ofatumumab (antibody), the Transcytosis in experiment [1] is 4.3 ng/mL.
On to Olaratumab (antibody), for which the Transcytosis in experiment [1] worked out at 8.2 ng/mL. This substance also had a pKd in experiment [4] of 6.42.
The matching figures for Palivizumab (antibody): 3.8 ng/mL and 6.32.
The substance Panitumumab (antibody) gave a Transcytosis in experiment [1] of 5 ng/mL. In experiment [4], the pKd was 6.11.
In turn, Pembrolizumab (antibody) registered a Transcytosis in experiment [1] of 4.2 ng/mL.
Turning to Pertuzumab (antibody), in experiment [1], the Transcytosis was found to be 6.8 ng/mL and the Transcytosis in MDCK-hFcRn cells was determined as 6.8 ng/mL. The same substance showed a pKd in experiment [4] of 6.24.
For Reslizumab (antibody), in experiment [1], the Transcytosis was determined as 3.3 ng/mL and the Transcytosis in MDCK-hFcRn cells came to 3.3 ng/mL. The pKd in experiment [4] is 6.35. In experiment [5], this substance yielded a Binding to MDCK-FcRn cells, MFI of 93 MFI.
For the substance Rituximab (antibody), the Transcytosis in experiment [1] came to 5.6 ng/mL. In addition, in experiment [4], the pKd was 6.34.
Substance Tocilizumab (antibody) registered a Transcytosis in experiment [1] of 5.5 ng/mL.
Same read-out and setting: with Vedolizumab (antibody) the figure was 4.1 ng/mL.
